Results as given in US20160264649A1.

Experiments:
Assay in all cases: cell-based or functional assay
[1] = target: HIV-1 Env of isolate 98CN009 (subtype CRF07_BC) (HIV-1)
[2] = target: HIV-1 Env of pseudovirus isolate MGRM-G-019 (subtype G) (HIV-1)
[3] = target: HIV-1 Env of pseudovirus isolate MGRM-G-001 (subtype G) (HIV-1)
[4] = target: HIV-1 Env of pseudovirus isolate MGRM-G-016 (subtype G) (HIV-1)
[5] = target: HIV-1 Env of isolate 98CN006 (subtype CRF08_BC) (HIV-1)
[6] = target: HIV-1 Env of isolate 92UG024 (subtype D) (HIV-1)
[7] = target: HIV-1 Env of isolate 92UG001 (subtype D) (HIV-1)
[8] = target: HIV-1 Env of pseudovirus isolate MGRM-G-017 (subtype G) (HIV-1)
[9] = target: HIV-1 Env of pseudovirus isolate MGRM-G-015 (subtype G) (HIV-1)
[10] = target: HIV-1 Env of isolate 92UG005 (subtype D) (HIV-1)
[11] = target: HIV-1 Env of pseudovirus isolate MGRM-G-014 (subtype G) (HIV-1)
[12] = target: HIV-1 Env of pseudovirus isolate MGRM-G-009 (subtype G) (HIV-1)
[13] = target: HIV-1 Env of pseudovirus isolate MGRM-G-024 (subtype G) (HIV-1)
[14] = target: HIV-1 Env of pseudovirus isolate MGRM-G-006 (subtype G) (HIV-1)
[15] = target: HIV-1 Env of pseudovirus isolate MGRM-G-013 (subtype G) (HIV-1)
[16] = target: HIV-1 Env of isolate 92UG046 (subtype D) (HIV-1)
[17] = target: HIV-1 Env of pseudovirus isolate MGRM-G-004 (subtype G) (HIV-1)
[18] = target: HIV-1 Env of pseudovirus isolate MGRM-G-025 (subtype G) (HIV-1)
[19] = target: HIV-1 Env of pseudovirus isolate MGRM-G-011 (subtype G) (HIV-1)
[20] = target: envelope of aMLV pseudovirus (negative control)
[21] = target: HIV-1 Env of pseudovirus isolate MGRM-G-028 (subtype G) (HIV-1)
[22] = target: HIV-1 Env of pseudovirus isolate MGRM-G-027 (subtype G) (HIV-1)

Chain of PGT-145 (antibody) (VH): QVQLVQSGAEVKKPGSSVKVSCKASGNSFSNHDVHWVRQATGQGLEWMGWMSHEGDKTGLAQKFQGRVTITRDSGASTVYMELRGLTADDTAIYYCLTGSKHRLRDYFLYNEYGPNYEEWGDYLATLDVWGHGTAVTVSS
Chain of PGT-145 (antibody) (VL): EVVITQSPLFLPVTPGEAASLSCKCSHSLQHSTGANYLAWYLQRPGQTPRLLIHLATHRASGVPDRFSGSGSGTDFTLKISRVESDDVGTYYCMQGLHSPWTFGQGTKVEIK
Chain of PGT-143 (antibody) (VH): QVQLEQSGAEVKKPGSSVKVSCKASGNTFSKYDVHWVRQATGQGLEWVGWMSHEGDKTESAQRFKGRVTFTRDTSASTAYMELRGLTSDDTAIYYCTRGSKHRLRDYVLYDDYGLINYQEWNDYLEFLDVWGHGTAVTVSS
Chain of PGT-143 (antibody) (VL): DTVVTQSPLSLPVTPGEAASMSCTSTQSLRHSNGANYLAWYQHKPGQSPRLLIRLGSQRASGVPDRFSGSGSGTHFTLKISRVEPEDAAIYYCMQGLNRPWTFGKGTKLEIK
Chain of PGT-144 (antibody) (VH): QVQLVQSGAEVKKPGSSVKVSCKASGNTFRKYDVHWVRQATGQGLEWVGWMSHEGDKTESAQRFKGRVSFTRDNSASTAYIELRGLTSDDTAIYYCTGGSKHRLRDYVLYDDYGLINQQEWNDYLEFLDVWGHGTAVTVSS
Chain of PGT-144 (antibody) (VL): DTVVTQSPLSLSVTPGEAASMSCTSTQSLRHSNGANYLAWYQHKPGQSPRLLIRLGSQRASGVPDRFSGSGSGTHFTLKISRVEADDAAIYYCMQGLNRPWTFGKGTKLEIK

Q: With PGT-143 (antibody) as the substance, how does the IC50 (neutralization) [1] read?
A: Its IC50 (neutralization) is 10.2 µg/mL.

Q: What about the IC50 [2] of the same substance?
A: The IC50 was 4.77 µg/mL.

Q: And the IC50 [3]?
A: The IC50 was 0.423 µg/mL.

Q: And the IC50 [4]?
A: Its IC50 is 7.6 µg/mL.

Q: What about the IC50 (neutralization) [5] of the same substance?
A: Its IC50 (neutralization) is greater than 50 µg/mL.

Q: And the IC50 (neutralization) [6]?
A: Its IC50 (neutralization) is greater than 50 µg/mL.

Q: What about the IC50 (neutralization) [7] of the same substance?
A: The IC50 (neutralization) was greater than 50 µg/mL.

Q: And the IC50 [8]?
A: The IC50 was 0.107 µg/mL.

Q: And the IC50 [9]?
A: Its IC50 is greater than 50 µg/mL.

Q: What about the IC50 (neutralization) [10] of the same substance?
A: The IC50 (neutralization) was greater than 50 µg/mL.

Q: And the IC50 [11]?
A: The IC50 was 0.107 µg/mL.

Q: What about the IC50 [12] of the same substance?
A: The IC50 was 2.97 µg/mL.

Q: And the IC50 [13]?
A: The IC50 was 0.048 µg/mL.

Q: What about the IC50 [14] of the same substance?
A: The IC50 was 0.031 µg/mL.

Q: And the IC50 [15]?
A: Its IC50 is greater than 50 µg/mL.

Q: What about the IC50 (neutralization) [16] of the same substance?
A: The IC50 (neutralization) was greater than 50 µg/mL.

Q: And the IC50 [17]?
A: Its IC50 is greater than 50 µg/mL.

Q: What about the IC50 [18] of the same substance?
A: The IC50 was greater than 50 µg/mL.

Q: What about the IC50 [19] of the same substance?
A: The IC50 was 0.074 µg/mL.

Q: What about the IC50 [20] of the same substance?
A: Its IC50 is greater than 50 µg/mL.

Q: What about the IC50 [21] of the same substance?
A: The IC50 was 43 µg/mL.

Q: And the IC50 [22]?
A: Its IC50 is greater than 50 µg/mL.

Q: With PGT-144 (antibody) as the substance, how does the IC50 (neutralization) [1] read?
A: Its IC50 (neutralization) is greater than 50 µg/mL.

Q: What about the IC50 [2] of the same substance?
A: The IC50 was greater than 50 µg/mL.

Q: And the IC50 [3]?
A: Its IC50 is greater than 50 µg/mL.

Q: And the IC50 [4]?
A: The IC50 was greater than 50 µg/mL.

Q: What about the IC50 (neutralization) [5] of the same substance?
A: Its IC50 (neutralization) is greater than 50 µg/mL.

Q: And the IC50 (neutralization) [6]?
A: The IC50 (neutralization) was greater than 50 µg/mL.

Q: And the IC50 (neutralization) [7]?
A: The IC50 (neutralization) was greater than 50 µg/mL.

Q: What about the IC50 [8] of the same substance?
A: Its IC50 is 9.97 µg/mL.

Q: What about the IC50 [9] of the same substance?
A: The IC50 was greater than 50 µg/mL.

Q: And the IC50 (neutralization) [10]?
A: Its IC50 (neutralization) is greater than 50 µg/mL.

Q: What about the IC50 [11] of the same substance?
A: The IC50 was 0.562 µg/mL.

Q: And the IC50 [12]?
A: The IC50 was greater than 50 µg/mL.

Q: And the IC50 [13]?
A: The IC50 was 7.92 µg/mL.

Q: And the IC50 [14]?
A: The IC50 was 3.84 µg/mL.

Q: What about the IC50 [15] of the same substance?
A: The IC50 was greater than 50 µg/mL.

Q: What about the IC50 (neutralization) [16] of the same substance?
A: The IC50 (neutralization) was greater than 50 µg/mL.

Q: And the IC50 [17]?
A: Its IC50 is greater than 50 µg/mL.

Q: What about the IC50 [18] of the same substance?
A: The IC50 was greater than 50 µg/mL.

Q: What about the IC50 [19] of the same substance?
A: Its IC50 is 1.58 µg/mL.

Q: What about the IC50 [20] of the same substance?
A: Its IC50 is greater than 50 µg/mL.

Q: What about the IC50 [21] of the same substance?
A: Its IC50 is greater than 50 µg/mL.

Q: What about the IC50 [22] of the same substance?
A: Its IC50 is greater than 50 µg/mL.

Q: With PGT-145 (antibody) as the substance, how does the IC50 (neutralization) [1] read?
A: Its IC50 (neutralization) is 0.136 µg/mL.

Q: What about the IC50 [2] of the same substance?
A: The IC50 was 0.041 µg/mL.

Q: What about the IC50 [3] of the same substance?
A: Its IC50 is 0.028 µg/mL.

Q: And the IC50 [4]?
A: Its IC50 is 0.081 µg/mL.

Q: And the IC50 (neutralization) [5]?
A: The IC50 (neutralization) was greater than 50 µg/mL.

Q: And the IC50 (neutralization) [6]?
A: Its IC50 (neutralization) is 1.6 µg/mL.

Q: And the IC50 (neutralization) [7]?
A: The IC50 (neutralization) was greater than 50 µg/mL.

Q: What about the IC50 [8] of the same substance?
A: Its IC50 is 0.205 µg/mL.

Q: And the IC50 [9]?
A: Its IC50 is 10.5 µg/mL.

Q: And the IC50 (neutralization) [10]?
A: The IC50 (neutralization) was greater than 50 µg/mL.

Q: And the IC50 [11]?
A: The IC50 was 0.144 µg/mL.

Q: And the IC50 [12]?
A: Its IC50 is 0.982 µg/mL.

Q: And the IC50 [13]?
A: The IC50 was 0.06 µg/mL.

Q: And the IC50 [14]?
A: Its IC50 is 0.286 µg/mL.

Q: And the IC50 [15]?
A: Its IC50 is greater than 50 µg/mL.

Q: What about the IC50 (neutralization) [16] of the same substance?
A: Its IC50 (neutralization) is greater than 50 µg/mL.

Q: And the IC50 [17]?
A: Its IC50 is greater than 50 µg/mL.

Q: What about the IC50 [18] of the same substance?
A: The IC50 was greater than 50 µg/mL.

Q: What about the IC50 [19] of the same substance?
A: Its IC50 is 0.028 µg/mL.

Q: And the IC50 [20]?
A: Its IC50 is greater than 50 µg/mL.

Q: What about the IC50 [21] of the same substance?
A: The IC50 was 0.046 µg/mL.

Q: And the IC50 [22]?
A: Its IC50 is 0.433 µg/mL.
